Source: patent publication US20230012273A1 (Boehringer Ingelheim, published 2023)
Read-outs that look alike come from different tables or passages of the source. Values belong to the binder of their own block, whether it stands above or below them.

Tests used:
[1] = target: T1, mouse SIRPα extracellular domain + His-tag (NP_031573) (mouse, UniProt P97797 32-373); test: SPR, Ab captured, ECD-His analyte
T1 chain: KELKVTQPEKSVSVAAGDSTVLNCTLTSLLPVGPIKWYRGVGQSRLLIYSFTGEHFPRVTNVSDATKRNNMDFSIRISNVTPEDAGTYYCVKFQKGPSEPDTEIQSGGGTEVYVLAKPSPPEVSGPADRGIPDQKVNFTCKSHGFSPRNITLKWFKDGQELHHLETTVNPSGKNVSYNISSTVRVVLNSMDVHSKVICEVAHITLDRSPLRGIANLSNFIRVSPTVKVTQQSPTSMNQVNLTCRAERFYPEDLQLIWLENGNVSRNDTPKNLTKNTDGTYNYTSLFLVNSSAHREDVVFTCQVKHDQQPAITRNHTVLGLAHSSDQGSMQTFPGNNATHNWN
Method: The binding affinity of anti-SIRPα antibodies to the various SIRPα analytes is determined by surface plasmon resonance (SPR) using a ProteOn XPR36 (Bio-Rad). The running buffer for this experiment and all dilutions (except where stated) are done in 1×HBS-EP+. […] The sensorchip is deactivated with 1M ethanolamine HCl for 420 sec at a flowrate of 10 μl/min.
The analyte is injected over the captured antibody for 300 sec at a flowrate of 30 μl/min. The dissociation is done for 600 sec. Two-fold serial dilutions of each SIRP protein (Extracellular Domain+His-Tag) are injected as analyte with the highest concentrations indicated in table 36 below.

[2] = target: T2, human SIRPβL/SIRPβ1v3 extracellular domain + His-tag (NP_001129316.1) (human, UniProt Q5TFQ8 30-371); test: SPR, Ab captured, ECD-His analyte
T2 construct: also called hSIRPβ1v3; HuSIRPβ1v3
Outline: (§1)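 SPR; Ab capture surface, ethanolamine-deactivated (1M, 420 s, 10 μl/min). Analyte: SIRP ECD+His, 2-fold dilution series in 1×HBS-EP+. Inject 300 s @ 30 μl/min; dissoc. 600 s.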

[3] = target: T3, human SIRPβ1 extracellular domain + His-tag (NP_006056.2) (human, UniProt O00241 30-371); test: SPR, Ab captured, ECD-His analyte
T3 construct: also called hSIRPβ1; HuSIRPβ1
Outline: as §1

[4] = target: T4, human SIRPαV2 extracellular domain + His-tag (CAA71403.1) (human, UniProt P78324 31-373); test: SPR, Ab captured, ECD-His analyte
T4 construct: also called hSIRPαV2; HuSIRPαV2
Outline: as §1

[5] = target: T5, human SIRPαV1 extracellular domain + His-tag (NP_542970.1) (human, UniProt P78324 31-373); test: SPR, Ab captured, ECD-His analyte
T5 construct: also called hSIRPαV1; HuSIRPαV1
Outline: as §1

[6] = target: full-length human SIRPβ1 D→H on Expi-CHO cells (human, UniProt O00241 30-398); test: flow cytometry, Expi-CHO cells
Method: (§2) These cells are blocked with donkey IgG and incubated on ice with increasing concentrations of antibodies for 60 minutes, washed and stained with AF647-conjugated donkey F(ab′)₂ anti-human IgG antibodies. Stained cells are washed, fixed, and analyzed by flow cytometry. Median fluorescent intensity is determined and used as a measure of antibody binding.

[7] = target: T2, human SIRPβL/SIRPβ1v3 extracellular …; test: SPR, Ab captured, ECD-His analyte; remark: listed apart in the source
Outline: as §1

[8] = target: T3, human SIRPβ1 extracellular domain + …; test: SPR, Ab captured, ECD-His analyte; remark: listed apart in the source
Outline: as §1

[9] = target: T4, human SIRPαV2 extracellular domain + …; test: SPR, Ab captured, ECD-His analyte; remark: listed apart in the source
Outline: as §1

[10] = target: T5, human SIRPαV1 extracellular domain + …; test: SPR, Ab captured, ECD-His analyte; remark: listed apart in the source
Outline: as §1

[11] = target: T6, human SIRPγ extracellular domain + His-tag (NP_061026.2) (human, UniProt Q9P1W8 29-360); test: SPR, Ab captured, ECD-His analyte
T6 construct: also called hSIRPγ; HuSIRPγ
Outline: as §1

[12] = target: T7, full-length human SIRPαV2 (CAA71403.1) on cells (human, UniProt P78324 31-504); test: flow cytometry, CD14+ monocytes V2V2
T7 construct: one molecule for CHO-K1 and Expi-CHO transfectants (CAA71403.1) and for endogenous V2 on THP-1 cells and on CD14+ monocytes of V2/V2 donors; also called CHO-hSIRPαV2; αV2 WT
Method: (§3) Antibody binding to primary human cells expressing SIRPα is evaluated by flow cytometry. Human peripheral blood mononuclear cells (PBMCs) from donors genotyped as homozygous for the SIRPα V1 allele, V2 allele, or heterozygous for both alleles are blocked with donkey IgG and incubated on ice with increasing concentrations of antibody for 60 minutes, washed and stained with AF647-conjugated donkey F(ab′)₂ anti-human IgG secondary reagent. […] Cells are washed, fixed, and analyzed by flow cytometry. Median fluorescent intensity of the CD14+ population was determined and used as a measure of antibody binding.

[13] = target: T8, full-length human SIRPβL (NP_001129316.1) on cells (human, UniProt Q5TFQ8 30-398); test: flow cytometry, U937 SIRPα-KO transfectants
T8 construct: one molecule for U937 SIRPα-KO transfectants (NP_001129316.1) and Expi-CHO transfectants (Q5TFQ8); also called SIRPβ1v3; βL WT
Method: as §2, with “Antibody binding to cells expressing full-length human SIRPβ1 (NP_006056.2) and SIRPβL (NP_001129316.1) is evaluated by flow cytometry. SIRPβ1- or SIRPβL-expressing U937^{SIRPα KO}” for “These”, “secondary reagent. Cells” for “antibodies. Stained cells”

[14] = target: T9, full-length human SIRPβ1 (NP_006056.2) on cells (human, UniProt O00241 30-398); test: flow cytometry, U937 SIRPα-KO transfectants
T9 construct: also called β1 WT
Method: as §2, with “Antibody binding to cells expressing full-length human SIRPβ1 (NP_006056.2) and SIRPβL (NP_001129316.1) is evaluated by flow cytometry. SIRPβ1- or SIRPβL-expressing U937^{SIRPα KO}” for “These”, “secondary reagent. Cells” for “antibodies. Stained cells”

[15] = target: T10, full-length human SIRPαV1 (NP_542970.1) on cells (human, UniProt P78324 31-504); test: flow cytometry, CD14+ monocytes V1V1
T10 construct: one molecule for CHO-K1 and Expi-CHO transfectants (NP_542970.1) and for endogenous V1 on U-937 cells and on CD14+ monocytes of V1/V1 donors; also called CHO-hSIRPαV1; αV1 WT
Method: as §3

[16] = target: T11, full-length human SIRPγ (NP_061026.2) on cells (human, UniProt Q9P1W8 29-387); test: flow cytometry, primary CD3+ T cells
T11 construct: also called CHO-hSIRPγ; γ WT
Method: Antibody binding to primary human T cells expressing endogenous SIRPγ is evaluated by flow cytometry. Human peripheral blood mononuclear cells (PBMCs) are blocked with donkey IgG and incubated on ice with increasing concentrations of antibody for 60 minutes, washed and stained with AF647-conjugated donkey F(ab′)₂ anti-human IgG secondary reagent. […] Cells are washed, fixed, and analyzed by flow cytometry. Median fluorescent intensity of CD3+ gated population is determined and used as a measure of antibody binding.

[17] = target: T10, full-length human SIRPαV1 (NP_542970.1) …; test: flow cytometry, competition with CD47 tetramer, monocytes V1V1
Method: (§4) Cells are washed, fixed, and analyzed by flow cytometry. Median fluorescent intensity of CD14+gated population is determined and used as a measure of CD47 binding.

[18] = target: T7, full-length human SIRPαV2 (CAA71403.1) …; test: flow cytometry, competition with CD47 tetramer, monocytes V2V2
Method: as §4

[19] = target: ED-tagged human SIRPα V1 receptor on Jurkat signaling reporter cells (human, UniProt P78324 31-504); test: cell-based or functional assay
[20] = target: ED-tagged human SIRPα V2 receptor on Jurkat signaling reporter cells (human, UniProt P78324 31-504); test: cell-based or functional assay
[21] = target: T8, full-length human SIRPβL …; test: flow cytometry, U937 SIRPα-KO cells expressing full-length human SIRPβL
Method: Antibody binding to cells expressing full-length human SIRPβ1 (NP_006056.2) and SIRPβL (NP_001129316.1) is evaluated by flow cytometry. SIRPβ1- or SIRPβL-expressing U937^{SIRPα KO} cells are blocked with donkey IgG and incubated on ice with increasing concentrations of antibodies for 60 minutes, washed and stained with AF647-conjugated donkey F(ab′)₂ anti-human IgG secondary reagent. Cells are washed, fixed, and analyzed by flow cytometry. Median fluorescent intensity is determined and used as a measure of antibody binding.

T3 sequence (O00241 other isoform, or with tags, fused parts or gaps): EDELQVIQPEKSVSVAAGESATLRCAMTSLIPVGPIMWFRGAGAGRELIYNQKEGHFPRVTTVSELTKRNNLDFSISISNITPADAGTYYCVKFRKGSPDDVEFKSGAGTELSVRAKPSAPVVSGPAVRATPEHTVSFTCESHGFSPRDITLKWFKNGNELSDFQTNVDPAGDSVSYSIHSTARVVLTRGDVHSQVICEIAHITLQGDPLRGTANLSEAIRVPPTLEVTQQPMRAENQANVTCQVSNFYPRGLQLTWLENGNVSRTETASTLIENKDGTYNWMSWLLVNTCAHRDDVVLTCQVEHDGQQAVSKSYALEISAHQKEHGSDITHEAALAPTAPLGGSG
T2 sequence (Q5TFQ8 other isoform, or with tags, fused parts or gaps): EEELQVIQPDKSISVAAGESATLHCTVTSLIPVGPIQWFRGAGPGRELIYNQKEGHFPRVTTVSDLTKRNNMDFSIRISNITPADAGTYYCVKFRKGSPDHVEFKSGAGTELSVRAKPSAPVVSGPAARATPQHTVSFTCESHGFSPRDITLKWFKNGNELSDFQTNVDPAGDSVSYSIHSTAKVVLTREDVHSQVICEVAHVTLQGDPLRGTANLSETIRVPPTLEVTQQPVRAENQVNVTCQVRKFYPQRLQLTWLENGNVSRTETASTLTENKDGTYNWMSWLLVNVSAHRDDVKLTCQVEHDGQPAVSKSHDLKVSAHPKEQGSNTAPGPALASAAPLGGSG
T10 sequence (P78324 31-504): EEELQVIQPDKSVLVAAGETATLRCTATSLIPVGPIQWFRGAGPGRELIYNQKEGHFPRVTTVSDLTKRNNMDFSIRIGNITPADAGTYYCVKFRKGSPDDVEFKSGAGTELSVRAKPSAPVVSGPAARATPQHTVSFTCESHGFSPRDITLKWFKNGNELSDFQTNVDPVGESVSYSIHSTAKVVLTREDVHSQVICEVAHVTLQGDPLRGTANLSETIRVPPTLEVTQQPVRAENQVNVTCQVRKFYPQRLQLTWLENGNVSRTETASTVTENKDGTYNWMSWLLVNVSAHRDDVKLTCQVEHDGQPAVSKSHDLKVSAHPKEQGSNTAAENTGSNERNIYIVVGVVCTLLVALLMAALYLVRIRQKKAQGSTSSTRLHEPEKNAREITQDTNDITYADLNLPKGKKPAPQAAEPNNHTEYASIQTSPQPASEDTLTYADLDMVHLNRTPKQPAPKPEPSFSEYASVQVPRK
T5 sequence (P78324 other isoform, or with tags, fused parts or gaps): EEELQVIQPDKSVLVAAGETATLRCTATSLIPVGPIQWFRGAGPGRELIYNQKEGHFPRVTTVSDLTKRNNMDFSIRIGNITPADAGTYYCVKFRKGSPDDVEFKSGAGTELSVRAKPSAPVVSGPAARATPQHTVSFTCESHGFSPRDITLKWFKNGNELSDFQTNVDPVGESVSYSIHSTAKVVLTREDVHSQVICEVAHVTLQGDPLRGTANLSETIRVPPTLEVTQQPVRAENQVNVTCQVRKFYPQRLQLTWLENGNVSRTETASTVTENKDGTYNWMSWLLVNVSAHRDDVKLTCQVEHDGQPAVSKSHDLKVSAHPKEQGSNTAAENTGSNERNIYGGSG
T7 sequence (P78324 other isoform, or with tags, fused parts or gaps): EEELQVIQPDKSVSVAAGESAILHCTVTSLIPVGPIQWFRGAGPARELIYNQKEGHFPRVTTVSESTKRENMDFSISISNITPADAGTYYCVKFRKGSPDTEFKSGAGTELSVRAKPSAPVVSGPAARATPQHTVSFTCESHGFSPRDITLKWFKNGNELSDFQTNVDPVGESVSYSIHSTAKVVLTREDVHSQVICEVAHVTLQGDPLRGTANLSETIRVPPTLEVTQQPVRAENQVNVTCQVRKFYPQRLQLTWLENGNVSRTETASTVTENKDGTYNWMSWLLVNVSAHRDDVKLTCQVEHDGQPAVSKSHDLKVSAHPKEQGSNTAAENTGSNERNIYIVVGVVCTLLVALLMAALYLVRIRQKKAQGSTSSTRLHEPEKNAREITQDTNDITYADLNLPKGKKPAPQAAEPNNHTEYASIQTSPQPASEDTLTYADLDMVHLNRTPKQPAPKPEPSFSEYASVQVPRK
T9 sequence (O00241 30-398): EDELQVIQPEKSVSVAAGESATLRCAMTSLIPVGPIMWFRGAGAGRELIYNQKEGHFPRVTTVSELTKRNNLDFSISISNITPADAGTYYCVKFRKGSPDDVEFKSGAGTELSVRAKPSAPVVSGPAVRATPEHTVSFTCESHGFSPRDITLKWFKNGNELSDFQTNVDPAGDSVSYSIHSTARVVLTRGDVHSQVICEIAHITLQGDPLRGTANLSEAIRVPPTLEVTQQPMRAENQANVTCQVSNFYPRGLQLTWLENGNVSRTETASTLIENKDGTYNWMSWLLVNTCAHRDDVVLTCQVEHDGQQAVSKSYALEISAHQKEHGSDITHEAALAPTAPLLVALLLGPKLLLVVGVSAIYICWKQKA
T8 sequence (Q5TFQ8 30-398): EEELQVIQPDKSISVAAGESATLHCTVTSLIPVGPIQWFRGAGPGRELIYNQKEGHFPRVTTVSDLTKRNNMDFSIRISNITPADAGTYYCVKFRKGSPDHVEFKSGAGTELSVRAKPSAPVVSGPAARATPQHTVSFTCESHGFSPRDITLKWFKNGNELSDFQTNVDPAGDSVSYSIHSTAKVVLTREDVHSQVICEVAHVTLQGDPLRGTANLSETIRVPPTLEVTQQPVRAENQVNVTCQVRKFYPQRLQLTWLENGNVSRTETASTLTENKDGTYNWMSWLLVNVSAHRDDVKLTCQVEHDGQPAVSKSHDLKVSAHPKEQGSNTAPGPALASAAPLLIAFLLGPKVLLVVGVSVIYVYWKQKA
T11 sequence (Q9P1W8 29-387): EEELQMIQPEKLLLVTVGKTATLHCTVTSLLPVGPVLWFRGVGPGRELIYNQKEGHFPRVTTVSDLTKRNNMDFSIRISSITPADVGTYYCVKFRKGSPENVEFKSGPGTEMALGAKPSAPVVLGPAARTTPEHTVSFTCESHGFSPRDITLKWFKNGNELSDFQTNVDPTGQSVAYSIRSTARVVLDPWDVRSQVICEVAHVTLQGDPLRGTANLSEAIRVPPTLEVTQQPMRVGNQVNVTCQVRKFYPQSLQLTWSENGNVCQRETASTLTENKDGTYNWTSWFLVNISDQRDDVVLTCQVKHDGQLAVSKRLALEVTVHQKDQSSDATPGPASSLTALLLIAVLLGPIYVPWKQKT
T4 sequence (P78324 other isoform, or with tags, fused parts or gaps): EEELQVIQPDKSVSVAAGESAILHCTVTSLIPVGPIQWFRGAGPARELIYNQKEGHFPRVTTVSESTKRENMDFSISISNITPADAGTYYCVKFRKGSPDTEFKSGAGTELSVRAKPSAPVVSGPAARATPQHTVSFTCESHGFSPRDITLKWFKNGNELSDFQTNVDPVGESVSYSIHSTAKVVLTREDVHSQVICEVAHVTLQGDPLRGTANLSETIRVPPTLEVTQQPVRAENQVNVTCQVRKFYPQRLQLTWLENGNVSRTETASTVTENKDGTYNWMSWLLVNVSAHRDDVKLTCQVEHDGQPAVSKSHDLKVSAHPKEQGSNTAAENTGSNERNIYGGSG
T6 sequence (Q9P1W8 29-360): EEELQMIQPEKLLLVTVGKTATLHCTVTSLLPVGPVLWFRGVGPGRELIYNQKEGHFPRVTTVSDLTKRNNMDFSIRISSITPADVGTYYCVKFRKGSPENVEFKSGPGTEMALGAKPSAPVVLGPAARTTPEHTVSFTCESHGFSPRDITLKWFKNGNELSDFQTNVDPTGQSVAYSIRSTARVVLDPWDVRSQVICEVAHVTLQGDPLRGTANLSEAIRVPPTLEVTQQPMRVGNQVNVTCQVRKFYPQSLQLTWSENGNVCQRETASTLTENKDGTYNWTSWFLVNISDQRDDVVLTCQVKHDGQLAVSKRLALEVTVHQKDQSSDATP
Chain of full-length human SIRPβ1 D→H on Expi-CHO cells (O00241 30-398 D130H): as the sequence (O00241 30-398) above, with D101H counted along it

- binding result [1]: no binding
- Kd [2]: 0.81 nM
- Kd [3]: 771 nM
- Kd [4]: 0.33 nM
- Kd [5]: 0.425 nM
- binding result [6]: no binding
- Kd [7]: 1.16 nM
- Kd [8]: 1230 nM
- Kd [9]: 0.42 nM
- Kd [10]: 0.456 nM
- binding result [11]: no binding (tested: 1000 nM)
B1: Antibody E (antibody, human IgG1, kappa, L234A L235A)
heavy: not shown
light: DIVMTQSPLSLPVTPGEPASISCKSSQSLLYSNGYNYLDWYLQRPGQSPQLLIYLGSNRASGVPDRFSGSGSGTDFTLKISRVEAEDVGVFYCMQALQTPLTFGGGTKVEIKRTVAAPSVFIFPPSDEQLKSGTASVVCLLNNFYPREAKVQWKVDNALQSGNSQESVTEQDSKDSTYSLSSTLTLSKADYEKHKVYACEVTHQGLSSPVTKSFNRGEC

- EC50 [12]: 0.1 nM
- EC50 [13]: 0.2 nM
- EC50 [14]: 0.1 nM
- EC50 [15]: 0.1 nM
- EC50 [16]: 0.02 nM
- IC50 [17]: 0.02 nM
- IC50 [18]: 0.05 nM
B2: anti-SIRPα antibody SIRP AB11 (antibody, V domains shown)
VH: QVQLVQSGAEVKKPGASVKVSCKASGYTFRGYGISWVRQAPGQGLEWMGWISAYGGETNYAQKLQGRVTMTTDTSTSTAYMELRSLRSDDTAVYYCAREAGSSWYDFDLWGRGTLVTVSS
VL: DIQMTQSPSSVSASVGDRVTITCRASQGISSWLAWYQQKPGKAPKLLIYAASNLQSGVPSRFSGSGSGTDFTLTISSLQPEDFATYYCQQGASFPITFGGGTKVEIKR

- EC50 [14]: 0.3 nM
- Blockade of Cellular CD47-Mediated SIRPα Signaling; IC50 [19]: 0.04 nM
- Blockade of Cellular CD47-Mediated SIRPα Signaling; IC50 [20]: 0.02 nM
- binding result [16]: no binding
- binding result [21]: no binding (tested: about 200 nM)
B3: Antibody A11 (antibody, human IgG4 S228P, kappa)
heavy: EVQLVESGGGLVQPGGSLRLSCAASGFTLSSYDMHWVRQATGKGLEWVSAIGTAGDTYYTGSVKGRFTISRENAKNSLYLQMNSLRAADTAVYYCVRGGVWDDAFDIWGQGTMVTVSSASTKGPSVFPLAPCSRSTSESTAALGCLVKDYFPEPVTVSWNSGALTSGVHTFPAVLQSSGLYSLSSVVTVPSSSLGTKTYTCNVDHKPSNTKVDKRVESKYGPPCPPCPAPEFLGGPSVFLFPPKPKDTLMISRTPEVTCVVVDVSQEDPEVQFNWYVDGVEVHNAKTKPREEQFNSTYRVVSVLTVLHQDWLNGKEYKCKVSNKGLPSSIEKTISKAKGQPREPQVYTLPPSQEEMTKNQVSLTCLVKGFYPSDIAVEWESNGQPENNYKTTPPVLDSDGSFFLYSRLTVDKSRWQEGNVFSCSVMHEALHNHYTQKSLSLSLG
light: DIQMTQSPSSLSASVGDRVTITCRASQDINNYLAWFQQKPGKAPKSLIYTASSLHSGVPSKFSGSGSGTDFTLTISSLQPEDFATYYCQQYVSYPYTFGQGTKLEIKRTVAAPSVFIFPPSDEQLKSGTASVVCLLNNFYPREAKVQWKVDNALQSGNSQESVTEQDSKDSTYSLSSTLTLSKADYEKHKVYACEVTHQGLSSPVTKSFNRGEC
